One data set addresses T1, Argonaute 3 (Ago3) (Drosophila melanogaster, UniProt Q7PLK0 SEQ:1-867).
T1 sequence: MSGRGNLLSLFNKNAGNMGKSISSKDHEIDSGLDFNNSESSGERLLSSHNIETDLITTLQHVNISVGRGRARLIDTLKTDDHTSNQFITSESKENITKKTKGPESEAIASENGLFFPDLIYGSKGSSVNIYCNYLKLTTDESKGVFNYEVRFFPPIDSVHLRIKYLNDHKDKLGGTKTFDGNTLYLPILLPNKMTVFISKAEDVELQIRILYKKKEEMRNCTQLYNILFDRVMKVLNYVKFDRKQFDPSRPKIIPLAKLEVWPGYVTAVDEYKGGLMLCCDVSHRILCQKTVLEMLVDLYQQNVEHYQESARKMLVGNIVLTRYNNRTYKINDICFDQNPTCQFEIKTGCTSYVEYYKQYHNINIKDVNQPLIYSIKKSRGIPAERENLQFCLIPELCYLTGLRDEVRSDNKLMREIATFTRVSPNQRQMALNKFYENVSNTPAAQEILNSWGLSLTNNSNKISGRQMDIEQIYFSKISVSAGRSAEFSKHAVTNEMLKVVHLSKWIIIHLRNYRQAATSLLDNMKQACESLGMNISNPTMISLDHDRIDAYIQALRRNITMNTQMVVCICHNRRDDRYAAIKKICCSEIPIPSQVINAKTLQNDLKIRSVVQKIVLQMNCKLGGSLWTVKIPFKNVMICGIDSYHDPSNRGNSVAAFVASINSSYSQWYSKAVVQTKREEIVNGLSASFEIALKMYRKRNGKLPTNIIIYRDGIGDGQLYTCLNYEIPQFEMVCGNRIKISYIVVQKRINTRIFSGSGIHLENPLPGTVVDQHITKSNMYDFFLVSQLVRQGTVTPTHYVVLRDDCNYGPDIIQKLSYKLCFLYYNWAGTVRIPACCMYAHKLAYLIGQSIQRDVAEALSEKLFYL
The experiment in a line: RNA cloned and sequenced from Ago3 immunoprecipitate of ovary extract; A at position 10. Conditions: tags: none; endogenous RNP immunopurified from ovary lysate. How it is done: (§1) Ovaries were dissected into ice cold PBS, flash frozen in liquid nitrogen and stored at −80 degrees. Ovary extract was prepared in Lysis buffer (20 mM HEPES-NaOH pH 7.0, 150 mM NaCl, 2.5 mM MgCl2, 250 mM Sucrose, 0.05% NP40, 0.5% Triton X-100. 1× Roche-Complete EDTA free) using a glass dounce homogenizer. Extracts were cleared by several spins at 14000 rpm. Extracts (10 microgram/microliter) were incubated with primary antibodies (1:50) for 4 h at 4 degrees per ml of extract. Fifteen microliters of Protein-G Sepharose (Roche) were added and mixtures were further incubated for 1 h at 4 degrees. Beads were washed 4 times in lysis buffer. RNA extraction from beads and 5′ labeling of RNAs was done as described in (Aravin et al., 2006)

A further data set deals with T2, Aubergine (Aub) (Drosophila melanogaster, UniProt O76922 SEQ:1-866).
T2 sequence: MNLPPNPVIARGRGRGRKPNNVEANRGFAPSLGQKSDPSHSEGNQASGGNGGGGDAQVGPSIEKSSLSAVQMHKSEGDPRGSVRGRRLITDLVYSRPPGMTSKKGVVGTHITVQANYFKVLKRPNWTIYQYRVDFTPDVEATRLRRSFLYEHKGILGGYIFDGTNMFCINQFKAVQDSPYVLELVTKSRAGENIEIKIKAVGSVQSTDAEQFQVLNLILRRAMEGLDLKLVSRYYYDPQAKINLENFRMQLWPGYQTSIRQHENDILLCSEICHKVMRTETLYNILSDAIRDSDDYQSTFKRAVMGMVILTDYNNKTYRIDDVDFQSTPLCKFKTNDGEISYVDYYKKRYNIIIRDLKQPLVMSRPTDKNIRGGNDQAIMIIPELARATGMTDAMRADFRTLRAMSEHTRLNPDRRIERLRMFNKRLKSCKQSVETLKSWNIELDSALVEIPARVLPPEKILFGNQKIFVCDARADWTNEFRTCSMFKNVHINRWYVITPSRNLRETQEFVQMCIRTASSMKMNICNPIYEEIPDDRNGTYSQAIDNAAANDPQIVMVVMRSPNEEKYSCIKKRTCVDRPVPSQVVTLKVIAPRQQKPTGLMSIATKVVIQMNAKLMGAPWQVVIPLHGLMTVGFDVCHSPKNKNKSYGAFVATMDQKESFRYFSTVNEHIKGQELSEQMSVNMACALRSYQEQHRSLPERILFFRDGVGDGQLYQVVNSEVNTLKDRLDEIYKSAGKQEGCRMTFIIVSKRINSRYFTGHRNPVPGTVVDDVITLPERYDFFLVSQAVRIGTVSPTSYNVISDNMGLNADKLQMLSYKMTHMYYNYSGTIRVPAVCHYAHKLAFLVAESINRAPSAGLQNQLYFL
Briefly: RNA cloned and sequenced from Aub immunoprecipitate of ovary extract; 5'U. As to conditions: tags: none; endogenous RNP immunopurified from ovary lysate. Here is the method: as §1

B1: roo sense piRNA (ssRNA)
RNA: CCUCUGCGUAGGCCAUUUACUUUAAG
Consider B1, for which the binding result in the data set with Argonaute 3 (Ago3) is listed as “binds”.

B2: roo antisense piRNA (ssRNA)
RNA: UACGCAGAGGCCUAAGUAAAUAGUC
As to B2, the binding result in the data set with Aubergine (Aub) was “binds”.

These data come from patent US20090062228, “piRNA and uses related thereto” (published 2009).
